From patent US20100021474A1 (Genentech, published 2010)

Legend:
[1] = biological target: T1, soluble form of HEPSIN comprising the entire extracellular domain (human HEPSIN Arg45-Leu417, His-tagged) (human, UniProt P05981 45-417); experiment: Ki app, enzyme inhibition assay with chromogenic substrate S2366, fit to the tight binding inhibition equation
T1 construct: range 45-417; Under reducing SDS-PAGE it runs as a 20 kDa A-chain and a 30 kDa B-chain; also called soluble HEPSIN; recombinant soluble HEPSIN; not shown: His tag
Protocol: (§1) A soluble form of the bi-Kunitz inhibitor HAI-2 was used as a stop reagent for the pro-uPA activation assay. […] HAI-2 was incubated with 0.5 nM HEPSIN or 10 nM uPA for 30 min in Hepes buffer (20 mM Hepes, pH 7.5, 150 mM NaCl, 5 mM CaCl₂, 0.01% Triton X-100) at room temperature. The chromogenic substrates S2366 (for HEPSIN) or S2444 (for uPA) were added at a concentration corresponding to their respective Kₘ values, which were determined in separate experiments. After substrate addition, the increase in absorbance at 405 nm was measured on a kinetic microplate reader (Molecular Devices, Sunnyvale, Calif.). The Kᵢ^app values were determined by fitting the data to the equation for tight binding inhibition (22,23).

[2] = biological target: T2, uPA (high molecular weight form) (UniProt P00749 21-431, limits assumed); experiment: Ki app, enzyme inhibition assay with chromogenic substrate S2444, fit to the tight binding inhibition equation
T2 construct: Bought reagent
Protocol: as §1

T1 sequence (P05981 45-417 limits assumed): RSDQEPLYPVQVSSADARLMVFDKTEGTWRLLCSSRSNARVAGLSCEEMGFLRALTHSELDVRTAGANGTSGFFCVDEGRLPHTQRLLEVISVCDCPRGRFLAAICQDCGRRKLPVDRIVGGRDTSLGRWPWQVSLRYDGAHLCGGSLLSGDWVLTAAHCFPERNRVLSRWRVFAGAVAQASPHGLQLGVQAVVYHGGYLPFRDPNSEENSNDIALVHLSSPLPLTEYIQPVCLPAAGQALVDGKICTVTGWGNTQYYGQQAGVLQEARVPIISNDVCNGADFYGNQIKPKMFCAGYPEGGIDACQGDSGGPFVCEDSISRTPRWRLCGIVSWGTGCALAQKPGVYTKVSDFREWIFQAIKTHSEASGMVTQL

- Ki [1]: 0.26 nM
- Ki [2]: > 1000 nM
B1: soluble form of hepatocyte growth factor activator inhibitor-2 (HAI-2) (other, UniProt O43291 28-197, looked up)
chain: ADRERSIHDFCLVSKVVGRCRASMPRWWYNVTDGSCQLFVYGGCDGNSNNYLTKEECLKKCATVTENATGDLATSRNAADSSVPSAPRRQDSEDHSSDMFNYEEYCTANAVTGPCRASFPRWYFDVERNSCNNFIYGGCRGNKNSYRSEEACMLRCFRQQENPPLPLGSK
notes: Called a soluble form
